In article PMC11722443:

Biological target: Paxillin (PXN) N-domain, residues 1-311 (human) (UniProt P49023)
Test: NMR titration

Focal adhesion targeting (FAT) domain of focal adhesion kinase (FAK) (domain or fragment)
effective KD of the LD2 motif: 7 mM
